In patent publication US12098206B2, “PDGF receptor antibody and use thereof” (Seoul National University R&DB Foundation, priority 2018, dated 2024):

Assays:
neovascularization [1] = assay: Laser-induced choroidal neovascularization animal model; type: in vivo, mice; settings: complex with cot-duo; 1 uL into the vitreous cavity, 10 nM; FIG. 10
Procedure: After anesthetizing the mice, the retina of the mouse was irradiated with an indirect ophthalmoscope system (ILOODA) laser in a 300 um spot size with 400 mW intensity, 50 ms duration, and 810 nm wavelength to induce destruction of Bruch's membrane.
After 4 days of laser irradiation, 1 uL of each bispecific antibody scFv-Cκ-scFv, and complex of the bispecific antibody scFv-Cκ-scFv fusion protein and the cot-duo was injected into the vitreous cavity at a concentration of 10 nM. After 7 days of laser irradiation, the eyes were removed to obtain retinal pigment epithelial-choroid-scleral tissue, and immunofluorescence staining was performed with isolectin B4 antibody conjugated to Alexa Fluor 594 to determine the extent of the choroidal neovascular membrane. The neovascularization inhibition ability of the scFv-Cκ-scFv fusion protein and the cot-duo complex was confirmed. To quantitatively analyze the extent of the choroidal neovascular membrane, the ImageJ program (NIH) was used.

mPDGFR-β and cotinine = molecular target: T1, mPDGFR-β and cotinine (Mus musculus, UniProt P05622); assay: Enzyme immunoassay, simultaneous binding to cotinine and mPDGFR-β; settings: cotinine-BSA coated wells, then mPDGFR-β-Fc chimera; FIG. 3d
T1 construct: mPDGFR-β
T1 sequence (P05622 32-530): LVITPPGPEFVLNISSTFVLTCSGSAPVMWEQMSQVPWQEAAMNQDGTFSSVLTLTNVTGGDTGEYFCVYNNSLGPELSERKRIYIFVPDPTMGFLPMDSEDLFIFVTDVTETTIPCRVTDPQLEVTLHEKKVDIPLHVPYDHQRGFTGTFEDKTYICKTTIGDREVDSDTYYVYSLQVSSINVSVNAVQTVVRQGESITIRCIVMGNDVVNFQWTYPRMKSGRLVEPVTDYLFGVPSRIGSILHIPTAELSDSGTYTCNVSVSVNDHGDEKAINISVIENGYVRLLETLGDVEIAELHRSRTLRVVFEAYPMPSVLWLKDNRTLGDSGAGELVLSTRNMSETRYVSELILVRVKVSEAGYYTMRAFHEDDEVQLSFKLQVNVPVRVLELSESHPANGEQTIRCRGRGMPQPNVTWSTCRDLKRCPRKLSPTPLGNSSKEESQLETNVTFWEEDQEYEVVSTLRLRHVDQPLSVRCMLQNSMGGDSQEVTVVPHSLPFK
Procedure: In order to confirm whether the bispecific antibody has simultaneous binding ability to both cotinine and mPDGFR-β, anti-mPDGFR-β x cotinine scFv-Cκ-scFv fusion protein was reacted in wells coated with cotinine-BSA. Washing was performed for each process, and mPDGFR-β-Fc chimeric protein and HRP-anti human Fc antibody were sequentially incubated.

MOLT-4 cells [2] = assay: Cytotoxicity in MOLT-4 cells not expressing mPDGFR-β; type: cell-based; settings: complex with cot-duo; FIG. 7
Procedure: FIG. 7 is a graph confirming the cytotoxic ability of the bispecific antibody related to the anti-mPDGFR-β antibody and cot-duo complexes in the cells not expressing PDGFR-β. In FIG. 7a, MOLT-4 cells were reacted with the bispecific antibody and cot-duo complex (DAR4). The cellular ATP was measured to evaluate the relative cell viability. In FIG. 7b, MOLT-4 cells were reacted with the bispecific antibody and cot-duo complex (DAR2). The bispecific antibody anti-HER2 x cotinine scFv-Cκ-scFv was used as a negative control. DMSO was used as a vehicle control for cot-duo.

neovascularization [3] = assay: Oxygen-induced retinal disease animal model; type: in vivo, C57BL/6 mice; settings: complex with cot-duo; 1 uL into the vitreous cavity, 1 nM and 10 nM; FIG. 9
Procedure: C57BL/6 mice on 7th day after birth were reared in a high-concentration oxygen (75%) chamber for 5 days, and transferred to a normal oxygen breeding facility on 12th day to create an environment for retinopathy of premature baby.
On the 14th day after birth, 1 uL of each bispecific antibody scFv-Cκ-scFv, and the complex of the bispecific antibody scFv-Cκ-scFv fusion protein and cot-duo were injected into the vitreous cavity at a concentration of 1 nM and 10 nM, respectively. To label blood vessels, isolectin B4-594 (1:100; 121413, Invitrogen) was treated on the retinal flat mount.

MOLT-4 cells [4] = assay: Flow cytometry binding to MOLT-4 cells not expressing mPDGFR-β; settings: 100 nM; FIG. 6
Procedure: The present inventors tested the binding ability of the bispecific antibody of scFv-Cκ-scFv fusion proteins in MOLT-4 cells not expressing mPDGFR-β by flow cytometry analysis. MOLT-4 cells were cultured with a bispecific antibody of scFv-Cκ-scFv fusion protein (100 nM) at 4° C. for 1 hour. After washing as described above, the detection was conducted by treating with an APC-anti human Cκ antibody. The MOLT-4 cells were purchased from the Korea Cell Line Bank and prepared by culturing in RPMI-1640 (Welgene, Seoul, Korea) medium added by 10% fetal bovine serum, 1% penicillin, and streptomycin.

mPDGFR-β = molecular target: T2, mPDGFR-β (Mus musculus, UniProt P05622); assay: Competition enzyme immunoassay with mPDGF-BB; type: binding; settings: mPDGF-BB 100 nM; FIG. 4a
T2 construct: mPDGFR-β
T2 sequence (P05622 32-530): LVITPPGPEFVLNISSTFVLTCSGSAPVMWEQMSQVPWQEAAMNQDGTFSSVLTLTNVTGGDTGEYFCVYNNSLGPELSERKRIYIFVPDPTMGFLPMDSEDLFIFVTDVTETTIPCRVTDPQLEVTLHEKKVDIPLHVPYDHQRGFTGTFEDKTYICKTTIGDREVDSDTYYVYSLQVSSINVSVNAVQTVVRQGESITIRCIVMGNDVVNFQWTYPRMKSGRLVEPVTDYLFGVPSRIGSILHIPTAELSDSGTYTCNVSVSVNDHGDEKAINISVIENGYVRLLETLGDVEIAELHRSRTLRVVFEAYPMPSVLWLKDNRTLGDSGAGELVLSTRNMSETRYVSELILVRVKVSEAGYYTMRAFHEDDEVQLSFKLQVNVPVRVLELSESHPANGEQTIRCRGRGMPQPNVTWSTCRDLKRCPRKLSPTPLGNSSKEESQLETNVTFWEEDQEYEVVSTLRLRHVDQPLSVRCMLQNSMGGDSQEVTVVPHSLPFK
Procedure: In order to confirm the competition between the bispecific antibody according to the present invention and mPDGF-BB, the microtiter plate was coated with mPDGFR-β-Fc chimera as mentioned above and then blocked. The microtiter plate was treated with various concentrations of the bispecific antibody (0.06 nM-1 μM) with or without addition of mPDGF-BB (100 nM), and then incubated at 37° C. for 2 hours. The washing, incubation, and detection were performed in the same manner as the enzyme immunoassay described above.
A competition enzyme immunoassay was developed to examine the effect of mPDGF-BB on the binding ability of anti-mPDGFR-β x cotinine scFv-Cκ-scFv fusion protein. The serially diluted bispecific antibodies (anti-mPDGFR-β scFv-Cκ-cotinine scFv) were incubated on wells coated with mPDGFR-β-Fc chimeric fusion protein with or without mPDGF-BB. HRP-anti-human Cκ antibody was incubated and then TMB was added. […] However, the binding ability of PRb-CN01 was not inhibited, so it confirmed that PRb-CN01 binds to mPDGFR-β in a noncompetitive manner to mPDGF-BB.

B1: PRb-CN01: anti-mPDGFR-β chicken scFv clone (VH SEQ ID NO 7, VL SEQ ID NO 8), tested as scFv-Cκ-anti-cotinine scFv bispecific antibody (antibody, V domains shown)
VH: AVTLDESGGGLQTPGGALSLVCKASGFTFSDRAMHWVRQAPGKGLEWVGLITNTGGSTNYGAAVKGRATISRDNGQSTVRLQLNNLRAEDTGTYYCTRGVGSWAHGGRIDAWGHGTEVIVSS
VL: LTQPSSVSANPGETVKITCSGGSGSYGWFQQKSPGSAPVTVIYSNNQRPSDIPSRFSGSKSGSTNTLTITGVQAEDEAIYYCGTRDSSYVGIFGAGTTLTVL
modifications: VH of PRb-CN01; VL of PRb-CN01
Neovascularization [1]
  inhibition of neovascularization: inhibited neovascularization
mPDGFR-β and cotinine
  simultaneous binding to mPDGFR-β and cotinine: simultaneously bound to mPDGFR-β and cotinine
MOLT-4 cells [2]
  toxicity in MOLT-4 cells compared to control antibody: no difference in toxicity from the control antibody
Neovascularization [3]
  inhibition of neovascularization: inhibited neovascularization in a concentration-dependent manner
MOLT-4 cells [4]
  binding to MOLT-4 cells: neither PRb-CN01 nor the anti-HER2 bispecific antibody of scFv-Cκ-scFv fusion antibody binds
mPDGFR-β
  binding ability to mPDGFR-β in the presence of mPDGF-BB: not inhibited
